Test results: patent US11547721B2, “Magnetic nanoparticles for use in the treatment of tumors” (CONSIGLIO NAZIONALE DELLE RICERCHE, priority 2018, dated 2023)

Key:
IGROV-1 cells [1] = assay: Cytotoxicity, cell viability assay with Presto blue; assay type: cell-based
Method: Cytotoxicity studies have been conducted to confirm the activity of the platinum-based chemotherapeutic agent attached to the nanocubes. IGROV-1 cells were incubated with nanocubes functionalized with oxaliplatin and antibody (in FIG. 3a indicated as NCs_OHP_C4) for 24, 48 and 72 hours at Fe concentration equal to 0.05 g/L, 0.1 g/L and 0.15 g/L, corresponding to 1.3, 2.6 and 3.9 μM of oxaliplatin chemotherapeutic agent. Cell viability has been verified in an assay with Presto blue. […] The toxicity of the chemotherapeutic agent alone was administered, administered to the cells for 24 hours, 48 hours and 72 hours at the concentration of oxaliplatin corresponding to the same quantity loaded on the nanocubes. […] It is also important to note that in these experiments the control consisted of nanocubes with polymeric coating, functionalised with PEG-NTA-C4, but lacking oxaliplatin, prepared as described above.
Cytotoxicity data were also collected for longer-time treatments, to verify the toxicity of oxaliplatin loaded on the nanocubes according to the invention over extended periods of time. In fact, since the action of platinum-based chemotherapy drugs involves their interleaving within the cell's DNA, the adverse effects of treatment with these drugs should be more evident at longer times after exposure to the drug. Then, after exposure of the IGROV-1 cells to the nanocubes functionalized with antibody and drug for 24, 48 and 72 hours of treatment respectively, the supernatant was removed and the cells were kept in a fresh culture medium for a further 24, 48 or 72 hours. The viability of these cells was verified by analysis with blue Presto immediately after direct exposure to the nanocubes and at 24, 48 and 72 hours after incubation.

IGROV-1 cells [2] = assay: Hyperthermia combined with release of chemotherapeutic agent, viability with Presto blue; assay type: cell-based; conditions: for cell viability at 24 hours / cell viability at 48 hours / cell viability at 120 hours: with hyperthermia (2 x 30 min, 42° C., 27 kA m^−1, 182 kHz), 5.5 g Fe/L
Method: Hyperthermia experiments were conducted on cells treated with the invention's nanocubes to monitor the efficiency of nanoparticles in killing tumor cells with heat and improving the toxicity mediated by oxaliplatin. In practice, 3×10^6 IGROV-1 cells were incubated with 5.5 g of Fe/L of invention nanocubes functionalized with oxaliplatin and NCs-PEG-Pt-C4 antibody fragment, and exposed to a magnetic field of 27 kA m^−1 at frequency of 182 kHz, so as not to exceed the biological limit (Hf=5×10^9 A m^−1 s^−1). Two consecutive 30-minutes hyperthermia treatments were then performed, each with a maximum temperature reached in these conditions of 42° C. Also included in this study were: untreated cells, cells incubated with nanocubes functionalized only with antibody without oxaliplatin (exposed and not exposed to hyperthermia), and cells incubated with nanocubes functionalized with antibody and oxaliplatin not exposed to hyperthermia. A control experiment was also performed by incubating the cells with free oxaliplatin at the same amount of platinum loaded on the nanocubes (28 μg of platinum, corresponding to 140 μM of oxaliplatin).
After the hyperthermal treatment, the cells were washed to remove excess nanocubes present and re-seeded in a fresh culture medium (5×10^4 cells per well for each cell sample), so as to monitor their vitality at 24, 48 and 120 hours after treatment, with an assay with blue Presto. […] After 120 hours, the combined and concomitant action of hyperthermia and release of the chemotherapeutic agent made the cells unable to recover their growth (vitality of about 40% at 120 hours).

[3] = system: KB cells (high natural expression of folate receptors); assay: Flow cytometry (FACS) binding of nanocubes to cells; assay type: cell-based; conditions: 0.025 mg/mL antibody fragment, PBS, 4° C., 1 hour
Method: (§1) The A431-tFR and A431-MOCK cells provided by the IRCSS Foundation, National Cancer Institute, Milan, Italy, were grown in the modified Dulbecco culture medium (DMEM, Merck, Kenilworth, USA). IGROV-1 cells (ATCC, UK) were cultured in RPMI-1640 (RPMI-1640, Merck, Kenilworth, USA). The KB cells (ATCC, UK) were cultured in RPMI-1640 without folic acid (RPMI-1640 without folic acid, Merck, Kenilworth, USA). All culture media were added with 10% inactivated fetal bovine serum (FBS), 1% penicillin-streptomycin and 1% glutamine at 37° C., 95% humidity with 5% CO2. The cells were divided every 3-4 days before reaching confluence. In these experiments, the functionalized nanocubes of the invention comprising the antibody fragment in a quantity of 0.025 mg/mL were incubated in PBS at 4° C. for 1 hour with 5×10^5 cells of the cell lines indicated above. As a negative control, the non-functionalised nanocubes with polymer coating were used. Then, after three washes, the cells were incubated for 1 hour at 4° C. with the primary antibody that binds to the myc sequence of the C4 antibody fragment. Following a wash in PBS a secondary antibody conjugated to the fluorescent probe Alexa-488 was added to the cells, capable of binding the Fc portion of the primary antibody.

[4] = system: IGROV-1 cells (high natural expression of folate receptors); assay: as above; assay type: cell-based; conditions: 0.025 mg/mL antibody fragment, PBS, 4° C., 1 hour
Method: as §1

[5] = system: A431-tFR cells (A431 transfected with folate receptor gene α-FR); assay: as above; assay type: cell-based; conditions: 0.025 mg/mL antibody fragment, PBS, 4° C., 1 hour
Method: as §1

[6] = system: A431-MOCK cells (do not express the folate receptor); assay: as above; assay type: cell-based; conditions: 0.025 mg/mL antibody fragment, PBS, 4° C., 1 hour
Method: as §1

[7] = Release of platinum from nanocubes in citrate buffer at different pH; assay type: physicochemical; conditions: pH 5.5, 5 and 4.5
From the text: Firstly, in a test tube, the release of platinum from the citrated buffer nanocubes at different pH was verified, according to the expected acidity values for endosomes, late endosomes and lysosomes (pH=5.5, 5 and 4.5 respectively). It has thus been verified that the release of platinum is pH dependent and that the maximum amount of platinum released is obtained at the lowest pH, i.e. at pH 4.5, which corresponds to the pH of the lysosomal environment.

IGROV-1 cells [8] = assay: Confocal laser scanning microscopy (CLSM) of nanocube internalization; assay type: cell-based
IGROV-1 cells [9] = assay: Comet assay for DNA cross-linking; assay type: cell-based; conditions: 24, 48, 72 hours incubation, then H2O2
Method: Furthermore, once released from the nanocubes, platinum must be incorporated into the cell nuclei and must form crosslinks with the DNA. In fact, its toxicity depends on the impossibility for cells to replicate and transcribe their genetic makeup due to the presence of platinum-DNA complexes. Thus, to evaluate the presence of cross-linking in the DNA of cells treated with nanocubes, a Comet assay was performed, whose results are illustrated in the images in FIG. 7, acquired with a confocal microscope. In this experiment, the cell samples examined of IGROV-1 cells were incubated with the nanocubes with antibody but without platinum (in FIG. 7 indicated as NCs_C4) and with the nanocubes of the invention with antibody and oxaliplatin (indicated in the figure as NCs_OHP_C4) for 24, 48 and 72 hours, so they were treated with H2O2 hydrogen peroxide. As a control, IGROV-1 cells were used, treated with the same nanocubes, with and without platinum, but without treatment with hydrogen peroxide.
The toxicity observed in the cells following treatment with functionalized nanocubes of the invention, we can conclude that it results from the combined effects of hyperthermia and toxicity induced by the platinum-based drug.

[10] = 24, 48 and 72 hours, oxaliplatin amount or nanocube concentration as for loaded nanocubes

Question: For O=C1[O][Pt]2([NH][C@@H]3CCCC[C@H]3[NH]2)[O]C1=O [oxaliplatin, reference compound], which “toxicity (cell viability, Presto blue)” value (IGROV-1 cells [1]; [10]) is on record?
Answer: moderate toxicity

Question: And the “cell viability after treatment” value (IGROV-1 cells [2]; free drug, 140 μM oxaliplatin (28 μg platinum), 24, 48, 120 hours)?
Answer: slightly affected

B1: NCs-PEG-Pt-scFv (conjugate)
scFv: NVQLVESGGGLVQPGRSLRLSCTTSGFTFGDYAMIWARQAPGKGLEWVSSISSSSSYIYYADSVKGRFTISRDNAKNSLYLQMNSLRAEDTAVYYCARERYDFWSGMDVWGKGTTVTVSSGGGGSGGGGSGGSAQSALTQPASVSGSPGQSITISCTGTSSDVGSYNLVSWYQQHPGKAPKLMIYEGSKRPSGVSNRFSGSKSGNAASLTISGLQAEDEADYYCQSYDSSLSVVFGGGTKLTVLGAAAHHHHHHGAAEQ
Question: For B1, which “nanocube binding to cells (fluorescence intensity vs. cell count)” value [3] is on record?
Answer: nanocube binding was demonstrated

Question: And the “nanocube binding to cells (fluorescence intensity vs. cell count)” value [4]?
Answer: nanocube binding was demonstrated

Question: And the “nanocube binding to cells (fluorescence intensity vs. cell count)” value [5]?
Answer: nanocube binding was demonstrated

Question: And the “nanocube binding to cells (fluorescence intensity vs. cell count)” value [6]?
Answer: no binding was found

Question: What about the “cell viability post-incubation (p.i.)” value (IGROV-1 cells [1]; 24 hours of treatment, then fresh medium 24, 48, 72 hours) of the same molecule?
Answer: decreases after 24 hours of treatment (post-incubation, p.i.) for the next 24 hours and then goes up again after 48 and 72 hours post-incubation

Question: What about the “toxicity (cell viability, Presto blue)” value (IGROV-1 cells [1]; 48 hours incubation, Fe 0.05, 0.1, 0.15 g/L = 1.3, 2.6, 3.9 μM oxaliplatin) of the same molecule?
Answer: Serious toxicity

Question: What about the “cell viability post-incubation (p.i.)” value (IGROV-1 cells [1]; 48 hours of treatment, then fresh medium up to 72 hours) of the same molecule?
Answer: decreases again for the next 72 hours

Question: What about the “toxicity (cell viability, Presto blue)” value (IGROV-1 cells [1]; 72 hours incubation vs 48 hours, Fe 0.05, 0.1, 0.15 g/L = 1.3, 2.6, 3.9 μM oxaliplatin) of the same molecule?
Answer: increased

Question: And the “cell viability at 24 hours” value (IGROV-1 cells [2])?
Answer: significantly modified cell viability

Question: What about the “cell viability at 48 hours” value (IGROV-1 cells [2]) of the same molecule?
Answer: further compromised

Question: And the “cell viability at 120 hours” value (IGROV-1 cells [2])?
Answer: about 40%

Question: And the “pH of maximum amount of platinum released” value [7]?
Answer: 4.5

Question: And the release of platinum [7]?
Answer: pH dependent

Question: And the “localization of nanocubes in cells” value (IGROV-1 cells [8]; 2 hours incubation at 37° C.)?
Answer: most of the nanocubes were located at the cell membrane

Question: And the “localization of nanocubes in cells” value (IGROV-1 cells [8]; 4 hours incubation at 37° C.)?
Answer: progressive internalization

Question: And the “localization of nanocubes in cells” value (IGROV-1 cells [8]; 12 hours incubation at 37° C.)?
Answer: complete internalization

Question: What about the “DNA trace in Comet assay” value (IGROV-1 cells [9]) of the same molecule?
Answer: progressive delay in migration reaching a maximum after 72 hours

B2: NCs_scFv (conjugate)
scFv: NVQLVESGGGLVQPGRSLRLSCTTSGFTFGDYAMIWARQAPGKGLEWVSSISSSSSYIYYADSVKGRFTISRDNAKNSLYLQMNSLRAEDTAVYYCARERYDFWSGMDVWGKGTTVTVSSGGGGSGGGGSGGSAQSALTQPASVSGSPGQSITISCTGTSSDVGSYNLVSWYQQHPGKAPKLMIYEGSKRPSGVSNRFSGSKSGNAASLTISGLQAEDEADYYCQSYDSSLSVVFGGGTKLTVLGAAAHHHHHHGAAEQ
Question: What does the source list for B2?
Answer: toxicity (cell viability, Presto blue) (IGROV-1 cells [1]; [10]): no toxicity; cell viability at 24 hours (IGROV-1 cells [2]): significantly modified cell viability; cell viability at 48 hours (IGROV-1 cells [2]): began to show a recovery; cell viability at 120 hours (IGROV-1 cells [2]): 95%; DNA trace in Comet assay (IGROV-1 cells [9]): traces of extensive damage
